Four molecules from publication PMC10329633, “Molecular basis and design principles of switchable front-rear polarity and directional migration in Myxococcus xanthus” (Nature Communications, 2023) can be followed below.

Several values for one entry are separate records, joined by “and”; a condition that tells them apart may be missing. Identical values can stand only once.

Assay [1] has as its target MalE-MglC (Myxococcus xanthus). The experiment in a line: mass photometry; mixtures of MalE-MglC with MalE-RomR or MalE-RomR^C in solution, diluted into phosphate-buffered saline.
Assay [2] concerns the target MalE-RomR (Myxococcus xanthus). Briefly: mass photometry; single proteins in solution, diluted into phosphate-buffered saline; MalE-RomR and MalE-RomR^C at 25 nM and 50 nM.
Assay [3] has as its target MalE-RomR^C (Myxococcus xanthus). Described as above.
Assay [4] deals with MalE-MglC (Myxococcus xanthus). The assay is described as above.
The next assay has as its target T1, MglA-His6 (Myxococcus xanthus, UniProt Q1DB04 1-195).
T1 construct: MglA, small GTPase of Myxococcus xanthus; Preloaded with GTP, GppNHp or GDP (40 µM) according to the experiment; the nucleotide is named in the assay's format; also called MglA-GTP; source: E. coli Rosetta 2(DE3), purified (Ni-NTA, Superdex 75 gel filtration); not shown: His6, C-terminal, kept
T1 sequence: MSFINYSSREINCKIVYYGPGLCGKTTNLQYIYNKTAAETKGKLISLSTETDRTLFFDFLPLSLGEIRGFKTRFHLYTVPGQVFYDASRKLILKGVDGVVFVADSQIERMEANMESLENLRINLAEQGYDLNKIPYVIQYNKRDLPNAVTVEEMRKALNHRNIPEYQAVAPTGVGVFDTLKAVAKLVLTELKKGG
The experiment in a line: pull-down; Strep-MglC as bait on Strep-Tactin beads; 40 µM GppNHp in all buffers; without or with MglA-His6 preincubated with GppNHp; proteins 10 µM; MglB detected by immunoblot with α-MglB. To be noted: both partners purified.

On to MalE-RomR (natural protein), for which, in assay [1], the stoichiometry N (RomR per MglC (printed as 2:2)) is 1 and the stoichiometry N (RomR per MglC (printed as 3:2)) was found to be 1.5. Further, the stoichiometry N in assay [2] is 2 and 3.
Consider MalE-RomR^C (domain or fragment), for which, in assay [1], the stoichiometry N (RomR^C per MglC (printed as 2:2)) worked out at 1 and the stoichiometry N (RomR^C per MglC (printed as 3:2)) came out at 1.5. In assay [3], the stoichiometry N was 2 and 3.
As for MalE-MglC (natural protein), the stoichiometry N in assay [4] stood at 2.

B1: His6-MglB (natural protein, Myxococcus xanthus)
chain: MGTQLVMYEEEFTKINAVCDRLTKDANAKVVFLVDKNGQLISSAGQTQNIDTTSLASLTAGNVAAMGGLAKLIGENEFPNQFHEGAKDSLYMTIVGSRVVLVVIFDNRTSLGLVRLRIKKASDELTKIFESLVKKTDSPGAGSPFAEISDDDIDNLFSE
notes: also called MglB-His6; MglB^WT; source: E. coli Rosetta 2(DE3), purified (Ni-NTA, Superdex 75 gel filtration); not shown: His6, N-terminal, kept
Consider B1, for which the binding result in the assay with MglA-His6 is on record as “binds”.
